Source: patent US20210087238A1, “CELL PENETRATING PEPTIDES AND RELATED COMPOSITIONS AND METHODS” (Phylogica Limited, priority 2017, published 2021)
Entries after “also recorded” stand apart in the source; their conditions may differ.

What was measured:
[1] = system: AMO-1 (plasmacytoma); assay: Omomyc cell viability assay, ATP activity; assay type: cell-based; settings: AMO-1 cells only
Method: (§1) Treatment of (A) AMO-1 (plasmacytoma), (B) HL-60 (promyelocytic leukemia), and (C) T47D (breast cancer) cell lines with FPP-1.1_Omomyc protein. After 48 h incubation, cell viability was assessed by measuring ATP activity. […] Results are representative of two independent experiments. Error bars represent standard deviation from the mean of duplicate samples.
(§2) All assays followed manufacturer's instructions.

[2] = system: AMO-1, HL-60, and T47D cell lines; assay: Omomyc cell viability assay, statements made for all three cell lines together; assay type: cell-based; settings: 48 h; ATP activity; AMO-1, HL-60, T47D
Method: as §1
Treatment of AMO-1 (plasmacytoma), HL-60 (promyelocytic leukemia), and T47D (breast cancer) cell lines with FPP1.1_Omomyc or small molecule inhibitors. After a 48 h incubation, the cell viability was assessed by measuring ATP activity. […] Results are from one independent experiment. Error bars represent standard deviation from the mean of duplicate samples.
as §2

B1: Omomyc: Myc dominant negative peptide (protein)
chain: GPGGSGTGATSDTEENVKRRTHNVLERQRRNELKRSFFALRDQIPELENNEKAPKVVILKKATAYILSVQAETQKLISEIDLLRKQNEQLKHKLEQLRNSCA
modifications: Amino acid sequence of Omomyc
notes: Myc dominant negative peptide
doses at which a slight reduction in cell viability was seen [1]: above 10 μM
effect on cell viability [2]: no effect on cell viability; also recorded: poor potency; also recorded: minor effect on cell viability only at the highest concentrations
